Laboratory results published in patent publication US20210145944.

What was measured:
Tau-441 (P301L) = Tau-441 (P301L) (UniProt P10636)
Chain of Tau-441 (P301L) (P10636 other isoform, or with tags, fused parts or gaps P301L): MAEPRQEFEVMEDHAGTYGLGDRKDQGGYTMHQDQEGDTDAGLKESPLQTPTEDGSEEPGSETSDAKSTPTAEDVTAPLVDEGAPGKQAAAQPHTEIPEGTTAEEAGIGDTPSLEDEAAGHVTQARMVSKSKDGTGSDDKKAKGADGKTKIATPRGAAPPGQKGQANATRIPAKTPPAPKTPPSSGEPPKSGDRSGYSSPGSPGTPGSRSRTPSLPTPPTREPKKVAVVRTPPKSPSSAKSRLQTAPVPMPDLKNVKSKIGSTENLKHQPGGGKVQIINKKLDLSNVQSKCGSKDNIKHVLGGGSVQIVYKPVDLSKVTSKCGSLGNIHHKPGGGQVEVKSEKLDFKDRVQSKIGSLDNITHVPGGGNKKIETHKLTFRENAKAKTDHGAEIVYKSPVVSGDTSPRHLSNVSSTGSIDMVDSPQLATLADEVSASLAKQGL

B1: cathepsin G (enzyme, UniProt P08311 21-244, looked up, species assumed)
Cathepsin G: IIGGRESRPHSRPYMAYLQIQSPAGQSRCGGFLVREDFVLTAAHCWGSNINVTLGAHNIQRRENTQQHITARRAIRHPQYNQRTIQNDIMLLQLSRRVRRNRNVNPVALPRAQEGLRPGTLCTVAGWGRVSMRRGTDTLREVQLRVQRDRQCLRIFGSYDPRRQICVGDRRERKAAFKGDSGGPLLCNNVAHGIVSYGKSSGVPPEVFTRVSSFLPWIRTTMRS
modifications: immobilized
Bodipy-labelled casein
  casein digestion by resin-immobilized protease, fluorescence (RFU) at 5 and 60 min: bar at 5 min about 2.3x10^7 RFU, bar at 60 min about 5.3x10^7 RFU; highest of the three groups; no control bar drawn
  casein digestion, fluorescence (RFU) of Bodipy-labelled casein after 1 h against protease concentration in solution: near 0 up to about 0.1 ug/ml, rises to about 3.4x10^7 RFU; the last two points (about 50 and 100 ug/ml) are at the same height
  casein-digestion activity, immobilized protease, fluorescence: exhibited casein-digestion activity at 5 minute and 60 minute incubation times
  casein-digestion activity, protease in solution, fluorescence: exhibited casein-digestion activity having linear reaction kinetics up to approximately 6 µg/ml of each protease
Tau-441 (P301L)
  digestion on immobilized protease column, SDS-PAGE silver stain (FIG. 3A): rapidly degraded
  loss of the Tau-441 (P301L) band on a silver-stained SDS-PAGE gel after incubation on the protease column: no band in the Cathepsin G column lanes at 2, 10 and 20 min; the No protease column lanes show a strong band of equal strength at 2, 10 and 20 min
